# Laboratory results as given in publication PMC8082267, “Inhibition of the PP2A activity by the histone chaperone ANP32B is long-range allosterically regulated by respiratory cytochrome c” (Redox Biology, 2021).
# Assays:
# Details in all cases: both partners purified
# [1] = target: T1, full-length ANP32B (ANP32B1-251) (human, UniProt Q92688-1 1-251); test: ITC; reduced Cc (400 uM stock) injected into ANP32B1-251 (50 uM) in the cell; 10 mM sodium phosphate pH 7.4 with 150 mM NaCl; single binding site
# T1 construct: also called Acidic leucine-rich Nuclear Phosphoprotein 32 family member B; source: E. coli BL21 (DE3) pLysS, pET28a(+), purified (Ni-NTA, Superdex 200)
# T1 sequence (Q92688 whole entry): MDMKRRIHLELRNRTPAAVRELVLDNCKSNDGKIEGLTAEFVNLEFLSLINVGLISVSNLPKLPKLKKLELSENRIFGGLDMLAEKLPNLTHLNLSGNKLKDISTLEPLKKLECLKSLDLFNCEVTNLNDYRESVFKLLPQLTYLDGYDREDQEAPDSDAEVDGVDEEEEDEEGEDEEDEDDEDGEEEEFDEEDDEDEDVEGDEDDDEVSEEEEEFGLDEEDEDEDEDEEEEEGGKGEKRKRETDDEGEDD
# [2] = target: T2, full-length ANP32B (ANP32B_(1-251)), recombinant (human, UniProt Q92688-1 1-251); test: ITC; high ionic strength: reduced Cc injected into ANP32B_(1-251), 10 mM sodium phosphate pH 7.4 with 150 mM NaCl
# T2 construct: cloned by PCR from cDNA (Geneservice, UK) into pET28a(+); source: E. coli BL21 (DE3) pLysS, purified (Ni-NTA, Superdex 200)
# T2 sequence (Q92688 whole entry): as above
# [3] = target: T2, full-length ANP32B (ANP32B_(1-251)), …; test: ITC; low ionic strength: 400 μM reduced Cc injected into ANP32B construct in the cell (50 μM ANP32B_(1-251), 40 μM ANP32B_(1-231), 50 μM ANP32B_(1-161)), 10 mM sodium phosphate pH 7.4; models with one or two independent binding sites
# [4] = target: T3, ANP32B construct lacking its Nuclear Localization Signal sequence (ANP32B_(1-231)) (human, UniProt Q92688-1 1-231); test: as above
# T3 construct: lacks the 20-amino acid C-end stretch; source: E. coli BL21 (DE3) pLysS, purified (Ni-NTA, Superdex 200)
# T3 sequence (Q92688 1-231): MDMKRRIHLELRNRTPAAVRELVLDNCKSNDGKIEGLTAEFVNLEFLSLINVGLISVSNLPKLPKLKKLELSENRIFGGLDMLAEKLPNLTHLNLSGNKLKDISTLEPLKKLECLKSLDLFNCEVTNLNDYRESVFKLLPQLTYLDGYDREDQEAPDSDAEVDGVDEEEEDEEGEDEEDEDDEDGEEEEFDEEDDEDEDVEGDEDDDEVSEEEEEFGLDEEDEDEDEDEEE
# Sequence of cytochrome c (P99999 2-105): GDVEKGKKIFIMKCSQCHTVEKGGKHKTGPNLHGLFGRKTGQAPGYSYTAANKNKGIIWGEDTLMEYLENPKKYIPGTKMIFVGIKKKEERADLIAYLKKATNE
Binder,Kd [1],stoichiometry N [1],stoichiometry N [2],"dH, higher-affinity site (two independent sites) [3]","dH, lower-affinity site (two independent sites) [3]",Kd [4],dH [4],stoichiometry N [4]
"cytochrome c (natural protein, heme group; kept in the reduced redox state; 15N-labelled in the NMR titrations, cytochrome c, human (the anti-human Cc serum was raised against this recombinant Cc); NMR assignment BMRB 5406 and structure PDB 1J3S are used for it; also called Cc; respiratory cytochrome c; source: E. coli BL21 (DE3), pBTR1 vector also encoding yeast heme lyase, purified (carboxymethyl cellulose ion exchange)) not shown",9.1 µM,1.2,–,–,–,–,–,–
"recombinant respiratory cytochrome c (natural protein, heme group (hemeprotein), reduced with sodium ascorbate; 15N-labelled in the HSQC titrations, cytochrome c, human; also called Cc; the hemeprotein) not shown",–,–,1,-10.7 kcal/mol,29.5 kcal/mol,8 µM,-3.6 kcal/mol,1.09
